Experimental data taken from paper PMC4303685.
Blank lines part the entries; values can stand above or below the substance they belong to.

Legend:
[1] = biological target: complement C3c (human) (UniProt P01024); assay: AUC; sedimentation velocity, c(s) analysis; PBS in 2H2O (137 mM NaCl, pH 7.4); monomer to dimer, proportions by peak integration
[2] = biological target: complement C3c (human) (UniProt P01024); assay: AUC; sedimentation velocity, c(s) analysis (SEDFIT), 50,000 rpm, 20 °C; 10 mM Hepes, 137 mM NaCl, pH 7.4; monomer to dimer, KD estimated from peak integration
[3] = biological target: complement C3c (human) (UniProt P01024); assay: AUC; sedimentation velocity, c(s) analysis (SEDFIT), 50,000 rpm, 20 °C; 10 mM Hepes, 50 mM NaCl, pH 7.4; monomer to dimer, KD estimated
[4] = biological target: complement C3c (human) (UniProt P01024); assay: SPR; Biacore X100, C3c amine-coupled to CM5 chip, C3d as analyte, 25 °C, 30 μl/min, steady state analysis; 10 mM Hepes, 50 mM NaCl, pH 7.4
[5] = biological target: recombinant wild-type C3d (E1032) (human) (UniProt P01024); assay: AUC; sedimentation velocity, c(s) analysis; PBS in 2H2O (137 mM NaCl, pH 7.4); monomer to dimer, proportions by peak integration
[6] = biological target: recombinant wild-type C3d (E1032) (human) (UniProt P01024); assay: AUC; sedimentation velocity, c(s) analysis (SEDFIT), 50,000 rpm, 20 °C; 10 mM Hepes, 137 mM NaCl, pH 7.4; monomer to dimer, KD estimated from peak integration
[7] = biological target: recombinant wild-type C3d (E1032) (human) (UniProt P01024); assay: AUC; sedimentation velocity, c(s) analysis (SEDFIT), 50,000 rpm, 20 °C; 10 mM Hepes, 50 mM NaCl, pH 7.4; monomer to dimer, KD estimated

- dimer proportion [1]: 7%
- stoichiometry N [1]: 2
- Kd [2]: 60 µM
- dimer, percent of the total [2]: 6%
- stoichiometry N [2]: 2
- Kd [3]: 50 µM
- stoichiometry N [3]: 2
Substance: complement C3c (from UniProt P01024 23-667; P01024 749-954; P01024 1321-1663) (domain or fragment)

- fold less binding than wild-type C3d [4]: 10 fold
Substance: mutant C3d (A1032), C3d E1032A (from UniProt P01024 996-1287) (domain or fragment)

- dimer proportion [5]: 12%
- stoichiometry N [5]: 2
- dimer, percent of the total [6]: 10%
- stoichiometry N [6]: 2
- Kd [7]: 25 µM
- stoichiometry N [7]: 2
- Kd [4]: 51 µM
Substance: recombinant wild-type C3d (E1032) (from UniProt P01024 996-1287) (domain or fragment)
